First the molecules themselves.
B4: GST-hBin2-CT (C-terminal region of human Bin2, amino acids 237-565) (domain or fragment, UniProt Q9UBW5 237-565, looked up)
chain: KLEKQHSNKVFVVKGLSSSSRRSLVISPPVRTATVSSPLTSPTSPSTLSLKSESESVSATEDLAPDAAQGEDNSEIKELLEEEEIEKEGSEASSSEEDEPLPACNGPAQAQPSPTTERAKSQEEVLPSSTTPSPGGALSPSGQPSSSATEVVLRTRTASEGSEQPKKRASIQRTSAPPSRPPPPRATASPRPSSGNIPSSPTASGGGSPTSPRASLGTGTASPRTSLEVSPNPEPPEKPVRTPEAKENENIHNQNPEELCTSPTLMTSQVASEPGEAKKMEDKEKDNKLISANSSEGQDQLQVSMVPENNNLTAPEPQEEVSTSENPQL
notes: Cloned into Nde1/Not1 sites of pGEX-4T-2; also called GST-Bin2-CT; BCT; source: E. coli DH5α, purified (glutathione sepharose, eluted with glutathione, dialysed)

Data set [1] concerns the molecule itself. The data set can be described thus: SEC; gel filtration profiles of WT rBin2 N-BAR against the V81R,S214E mutant, with molecular weight standards. (In general: In gel filtration, larger molecules generally elute earlier.)
Data set [2] deals with the molecule itself. The data set can be described thus: AUC; equilibrium sedimentation, 20°C, 20,000, 30,000 and 40,000 rpm; 20 mM Tris, 200 mM NaCl, 0.1 mM DTT; dimer to monomers.
The target of data set [3] is T1, Full-length rat Endophilin A1 (rat, UniProt O35179 1-352).
T1 construct: Endophilin A1, rat, full length; Cloned into pGEX-6P-2; also called rEndoA1; EndoA1
Kind of data set: pull-down; 10 µg GST fusion or GST on glutathione beads with rising amounts of purified prey, 60 min; 20 mM HEPES pH 7.5, 150 mM NaCl, 1 mM DTT, 0.1% Triton X-100; SDS-PAGE, Coomassie. Conditions: both partners purified.

Data set [4] addresses T2, GST-hBin2-CT (C-terminal region of human Bin2, amino acids 237-565) (Homo sapiens (Human), UniProt Q9UBW5).
T2 chain: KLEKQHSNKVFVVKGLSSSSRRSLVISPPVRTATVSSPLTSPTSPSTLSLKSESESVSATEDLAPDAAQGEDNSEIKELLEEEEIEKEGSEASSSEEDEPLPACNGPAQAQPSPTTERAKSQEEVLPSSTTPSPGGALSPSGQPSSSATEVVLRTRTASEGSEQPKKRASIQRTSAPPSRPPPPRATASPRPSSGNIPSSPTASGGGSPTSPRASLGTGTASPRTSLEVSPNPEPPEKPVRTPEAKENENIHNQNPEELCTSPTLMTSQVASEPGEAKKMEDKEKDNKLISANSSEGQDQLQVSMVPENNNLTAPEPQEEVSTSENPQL
The data set can be described thus: GST pull-down, Coomassie.

In data set [5] the target is B4. The data set can be described thus: pull-down; 10 µg GST fusion or GST on glutathione beads with rising amounts of purified prey, 60 min; 20 mM HEPES pH 7.5, 150 mM NaCl, 1 mM DTT, 0.1% Triton X-100; SDS-PAGE, Coomassie. Conditions: both partners purified.
Data set [6] deals with the molecule itself. The data set can be described thus: crystal structure; hanging-drop crystals in 10% MPD, 7% PEG4000, 0.1 M sodium citrate pH 5.3, 20°C; MIRAS phasing; two molecules in the asymmetric unit.

T1 sequence (O35179 whole entry): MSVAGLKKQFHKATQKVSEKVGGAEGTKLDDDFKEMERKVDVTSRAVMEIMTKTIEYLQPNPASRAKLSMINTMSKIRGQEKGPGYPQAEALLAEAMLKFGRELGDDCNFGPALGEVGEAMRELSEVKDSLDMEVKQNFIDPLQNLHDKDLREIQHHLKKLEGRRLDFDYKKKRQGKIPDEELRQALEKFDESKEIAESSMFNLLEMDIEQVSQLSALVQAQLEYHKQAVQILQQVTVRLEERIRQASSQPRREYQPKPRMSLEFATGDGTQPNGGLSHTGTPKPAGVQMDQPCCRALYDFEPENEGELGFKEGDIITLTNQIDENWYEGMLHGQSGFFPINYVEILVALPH

B1: Rat Bin2 N-BAR domain (1-238), wild type (domain or fragment, UniProt Q68FR2 1-238, looked up)
chain: MAEGKAGGAAGLFAKQMQKKFSRAQEKVLQKLGKTVETKDERFEQSASNFYQQQAEGHRLYKDLKNFLSAVKVMRESSKRVSETLQEIYNSDWDGHEDLKAIVGNNDLLWEDYEEKLADQALRTMENYVSQFSEVKERIAKRGRKLVDYDSARHHLEAVQNAKKKDEAKMAKAEEDFSKAQVVFEDLNQELLEELPVLYNSRIGCYVTVFQNISNLRDVFYREMSKLNHSLYEVMSKL
notes: Bridging integrator-2 (Bin2), rat, residues 1-238; also called WT rBin2 N-BAR
B1: in data set [1], the binding result is “binds”.

B2: Rat Bin2 N-BAR V81R,S214E mutant (domain or fragment, UniProt Q68FR2 1-238, looked up)
chain: MAEGKAGGAAGLFAKQMQKKFSRAQEKVLQKLGKTVETKDERFEQSASNFYQQQAEGHRLYKDLKNFLSAVKVMRESSKRRSETLQEIYNSDWDGHEDLKAIVGNNDLLWEDYEEKLADQALRTMENYVSQFSEVKERIAKRGRKLVDYDSARHHLEAVQNAKKKDEAKMAKAEEDFSKAQVVFEDLNQELLEELPVLYNSRIGCYVTVFQNIENLRDVFYREMSKLNHSLYEVMSKL
notes: also called rBin2 N-BAR V81R,S214E; dimerization mutant
As to B2, the binding result in data set [1] is “binds”.

B3: Human Bin2 N-BAR domain (1-238) (domain or fragment, UniProt Q9UBW5 1-238, looked up)
chain: MAEGKAGGAAGLFAKQVQKKFSRAQEKVLQKLGKAVETKDERFEQSASNFYQQQAEGHKLYKDLKNFLSAVKVMHESSKRVSETLQEIYSSEWDGHEELKAIVWNNDLLWEDYEEKLADQAVRTMEIYVAQFSEIKERIAKRGRKLVDYDSARHHLEAVQNAKKKDEAKTAKAEEEFNKAQTVFEDLNQELLEELPILYNSRIGCYVTIFQNISNLRDVFYREMSKLNHNLYEVMSKL
notes: Bridging integrator-2 (Bin2, BRAP1), human, residues 1-238; also called hBin2 N-BAR; source: E. coli DH5α, purified (glutathione sepharose, thrombin cleavage, HiTrap Q, gel filtration)
B3 showed a Kd in data set [2] of 7 µM.

For the molecule B4, in data set [3], the binding result was “binds”.

B5: Human α-PIX SH3 domain (amino acids 160-222) (domain or fragment, UniProt Q15052 160-222, looked up)
chain: SHQLIVKARFNFKQTNEDELSVCKGDIIYVTRVEEGGWWEGTLNGRTGWFPSNYVREIKSSER
notes: α-PIX, human, SH3 domain, residues 160-222; Cloned into pGEX-4T-2
For B5, the binding result in data set [4] and in data set [5] was “binds” throughout.

B6: Human Bin2 BAR domain (residues 20-238; Bin2 N-BAR Δ19) (domain or fragment, UniProt Q9UBW5 20-238, looked up)
chain: KFSRAQEKVLQKLGKAVETKDERFEQSASNFYQQQAEGHKLYKDLKNFLSAVKVMHESSKRVSETLQEIYSSEWDGHEELKAIVWNNDLLWEDYEEKLADQAVRTMEIYVAQFSEIKERIAKRGRKLVDYDSARHHLEAVQNAKKKDEAKTAKAEEEFNKAQTVFEDLNQELLEELPILYNSRIGCYVTIFQNISNLRDVFYREMSKLNHNLYEVMSKL
notes: Bridging integrator-2 (Bin2, BRAP1), human, residues 20-238; human Bin2 has 565 amino acids; the final model holds residues 37-238; Cloned into BamH1/Xho1 sites of pGEX-4T-2; also called hBin2 BAR; Bin2-NTΔ19; source: E. coli DH5α, purified (glutathione sepharose, thrombin cleavage, HiTrap Q, gel filtration)
For the molecule B6, the binding result in data set [6] is “binds”.

In general, Kd refers to the equilibrium constant for the complex coming apart. A low value points to a tighter complex.

(Values after article PMC3527510, “Bin2 Is a Membrane Sculpting N-BAR Protein That Influences Leucocyte Podosomes, Motility and Phagocytosis” (PLoS ONE, 2012).)
